For one assay, the target named is T1, GST-TIR1-ASK1 complex (Arabidopsis thaliana, UniProt Q570C0 1-594; Q39255 1-160).
T1 chain 1: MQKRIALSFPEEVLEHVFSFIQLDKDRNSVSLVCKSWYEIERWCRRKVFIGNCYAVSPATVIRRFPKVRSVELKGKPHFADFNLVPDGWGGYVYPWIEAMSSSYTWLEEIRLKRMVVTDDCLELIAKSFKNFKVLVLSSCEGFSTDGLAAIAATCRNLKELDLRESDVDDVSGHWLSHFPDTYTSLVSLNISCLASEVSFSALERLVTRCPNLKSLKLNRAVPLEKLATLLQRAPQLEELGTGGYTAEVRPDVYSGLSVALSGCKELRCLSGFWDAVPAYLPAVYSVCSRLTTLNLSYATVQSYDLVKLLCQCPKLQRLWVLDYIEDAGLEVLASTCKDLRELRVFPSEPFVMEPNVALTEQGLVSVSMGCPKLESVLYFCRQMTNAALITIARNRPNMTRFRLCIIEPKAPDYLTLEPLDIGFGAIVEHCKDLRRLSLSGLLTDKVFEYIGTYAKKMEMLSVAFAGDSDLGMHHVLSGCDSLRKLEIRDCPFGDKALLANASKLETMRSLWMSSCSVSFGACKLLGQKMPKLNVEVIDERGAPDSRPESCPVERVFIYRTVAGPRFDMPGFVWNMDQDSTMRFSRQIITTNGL
T1 chain 2: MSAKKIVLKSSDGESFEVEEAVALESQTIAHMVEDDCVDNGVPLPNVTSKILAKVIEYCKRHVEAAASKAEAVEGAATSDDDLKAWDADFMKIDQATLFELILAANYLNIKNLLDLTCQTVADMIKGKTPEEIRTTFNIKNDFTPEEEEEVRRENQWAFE
Description: 200 uM auxin; AlphaScreen competition with biotin-Aux/IAA7.

The next assay deals with His-CA14 D34A. Description: 200 uM CBD; AlphaScreen competition with Biotin-DB21.
The next assay concerns the target His-CA14. Described as above.
A further assay addresses T2, IAA7 degron (Arabidopsis thaliana, UniProt Q38825, auxin).
T2 chain: QVVGWPPVRNYRK
The assay can be described thus: BLI.

The target of assay [1] is T3, Biotin-DB21 (biotinylated Avi-DB21) (biotin on the Avi-tag (BirA-catalyzed)). Description: no CBD; AlphaScreen competition with His-CA14.
The target of assay [2] is T4, Biotinylated DB21 F48A-H101A (biotin on the Avi-tag (BirA-catalyzed)). The assay can be described thus: no CBD; AlphaScreen competition.
Assay [3] has as its target T5, Biotinylated DB21 F48A (biotin on the Avi-tag (BirA-catalyzed)). The assay can be described thus: no CBD; AlphaScreen competition.
Assay [4] concerns the target T3, Biotin-DB21 (biotinylated Avi-DB21). Description: 200 uM CBD; AlphaScreen competition with His-CA14.
The target of assay [5] is T4, Biotinylated DB21 F48A-H101A. The assay can be described thus: 200 uM CBD; AlphaScreen competition.
Assay [6] has as its target T5, Biotinylated DB21 F48A. Description: 200 uM CBD; AlphaScreen competition.
The target in assay [7] is T4, Biotinylated DB21 F48A-H101A. The assay can be described thus: BLI; 200 uM CBD.
The next assay deals with Biotinylated DB21 H101A (biotin on the Avi-tag (BirA-catalyzed)). The assay can be described thus: BLI; 200 uM CBD.
The target of assay [8] is T5, Biotinylated DB21 F48A. Description: BLI; 200 uM CBD.
The next assay has as its target His-DDB1–CRBN complex (human, UniProt Q96SW2 41-442; Q16531 1-1140). The assay can be described thus: 200 uM pomalidomide; AlphaScreen competition.

B1: IAA7 degron peptide, non-labeled (peptide)
chain: QVVGWPPVRNYRK
modifications: synthetic peptide, unlabelled; limits not given, taken from the IAA7 degron peptide of the TIR1-ASK1 crystal structures (13-mer, PDB 2P1Q)
Molecule B1 gave a concentration for half-maximal inhibition (IC50) in the assay with GST-TIR1-ASK1 complex of 18.4 nM.

B2: DB21 dimerization binder nanobody, tag-free (VHH)
VHH: EVQLQASGGGFVQPGGSLRLSCAASGTTYGQTNMGWFRQAPGKEREFVSAISGLQGRDLYYADSVKGRFTISRDNSKNTVYLQMNSLRAEDTATYYCAFHDFLRMWEYWGQGTQVTVSS
For the molecule B2, the IC50 with His-CA14 D34A turned out to be 27000 nM; in the assay with His-CA14, 35 nM.

B3: TIR1 (protein)
chain: MQKRIALSFPEEVLEHVFSFIQLDKDRNSVSLVCKSWYEIERWCRRKVFIGNCYAVSPATVIRRFPKVRSVELKGKPHFADFNLVPDGWGGYVYPWIEAMSSSYTWLEEIRLKRMVVTDDCLELIAKSFKNFKVLVLSSCEGFSTDGLAAIAATCRNLKELDLRESDVDDVSGHWLSHFPDTYTSLVSLNISCLASEVSFSALERLVTRCPNLKSLKLNRAVPLEKLATLLQRAPQLEELGTGGYTAEVRPDVYSGLSVALSGCKELRCLSGFWDAVPAYLPAVYSVCSRLTTLNLSYATVQSYDLVKLLCQCPKLQRLWVLDYIEDAGLEVLASTCKDLRELRVFPSEPFVMEPNVALTEQGLVSVSMGCPKLESVLYFCRQMTNAALITIARNRPNMTRFRLCIIEPKAPDYLTLEPLDIGFGAIVEHCKDLRRLSLSGLLTDKVFEYIGTYAKKMEMLSVAFAGDSDLGMHHVLSGCDSLRKLEIRDCPFGDKALLANASKLETMRSLWMSSCSVSFGACKLLGQKMPKLNVEVIDERGAPDSRPESCPVERVFIYRTVAGPRFDMPGFVWNMDQDSTMRFSRQIITTNGL
In the assay with IAA7 degron, B3 showed a Kd of 30.5 nM.

B4: CA14 anchor binder nanobody, tag-free (VHH)
VHH: EVQLQASGGGFVQPGGSLRLSCAASGSTSRQYDMGWFRQAPGKEREFVSAISSNQDQPPYYADSVKGRFTISRDNSKNTVYLQMNSLRAEDTATYYCAFKQHHANGAYWGQGTQVTVSS
For B4, the concentration for half-maximal inhibition (IC50) in assay [1] stood at 17000 nM; in [2], 23000 nM; with Biotinylated DB21 F48A [3] it was 18000 nM; in assay [4] it was 31 nM; in [5], 4700 nM; in the assay with Biotinylated DB21 F48A [6], 1700 nM. Further, the Kd in assay [7] was 1900 nM; in the assay with Biotinylated DB21 H101A, 215 nM; in the assay with Biotinylated DB21 F48A [8], 1500 nM.

B5: Label-free IKZF1 ZF2-3 (141-196) (domain or fragment)
chain: GERPFQCNQCGASFTQKGNLLRHIKLHSGEKPFKCHLCNYACRRRDALTGHLRTHS
On to B5, for which, in the assay with His-DDB1–CRBN complex, the IC50 turned out to be 67 nM.

Source of the values: article PMC8831599 (2022).
